From IntAct's records for PubMed 18022368

B1: MAD2L1-binding protein (Homo sapiens), Q15013 (parent)
chain: MAAPEAEVLSSAAVPDLEWYEKSEETHASQIELLETSSTQEPLNASEAFCPRDCMVPVVFPGPVSQEGCCQFTCELLKHIMYQRQQLPLPYEQLKHFYRKPSPQAEEMLKKKPRATTEVSSRKCQQALAELESVLSHLEDFFARTLVPRVLILLGGNALSPKEFYELDLSLLAPYSVDQSLSTAACLRRLFRAIFMADAFSELQAPPLMGTVVMAQGHRNCGEDWFRPKLNYRVPSRGHKLTVTLSCGRPSIRTTAWEDYIWFQAPVTFKGFRE

Variants of: B1
Conditions: with md2l1_human MAD2L1, Q13257
md2l1_human MAD2L1, Q13257, sequence (Q13257 whole entry): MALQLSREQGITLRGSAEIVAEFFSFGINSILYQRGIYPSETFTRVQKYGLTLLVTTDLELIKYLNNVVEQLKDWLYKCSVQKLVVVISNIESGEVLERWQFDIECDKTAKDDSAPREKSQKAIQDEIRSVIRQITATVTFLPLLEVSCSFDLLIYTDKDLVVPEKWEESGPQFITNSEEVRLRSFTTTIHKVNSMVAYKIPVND

Variant | effect of a mutation on the interaction
Q83A | decreasing interaction
Q83A;F191A | decreasing interaction
F191A | decreasing interaction
